Source: paper PMC10602183 (Research Square, 2023)

Tests used:
[1] = molecular target: T1, gp120 derived from HIV-1 SF162, biotinylated (HIV-1 isolate SF162, UniProt P19550, strain, biotin (Lynx biotinylation kit)); experiment: flow cytometry on cells; HmAb64 blocking the staining of primary human CD4+ T cells by biotinylated gp120 (antibody and gp120 both purified proteins in solution); conditions: both partners purified
T1 construct: gp120 subunit of Env (cut product of gp160) of HIV-1 isolate SF162; also called SF162 gp120

A244 gp120 = molecular target: T2, A244 gp120 (HIV-1 isolate A244); experiment: SPR; Biacore 3000, CM4 or CM5 chips; gp120 or BG505-SOSIP amine-coupled to about 750 RU; HBS pH 7.4, 3 mM EDTA, 0.005% Tween-20, 0.05% carboxymethyl-dextran; 25 ul/min, 25 °C; conditions: both partners purified
T2 construct: gp120 subunit of Env (cut product of gp160) of HIV-1 isolate A244; also called gp120 protein from A244 viral isolate

[2] = molecular target: T3, HIV-1 SF162 Env on infected CD4+ T cells (HIV-1 isolate SF162, UniProt P19550, strain); experiment: flow cytometry on cells; primary human CD4+ T cells infected with HIV SF162 for 3 days, stained with HmAb64 (2 ug), goat anti-human-PE; uninfected cells as control; conditions: one partner purified
T3 construct: Env as the target follows from the antibody's specificity; also called HIV-1 on cell surface; SF162 infected CD4+ T cells; source: primary human CD4+ T cells infected with HIV SF162, on cells

[3] = molecular target: T4, wild type gp120 Env protein of HIV-1 YU2 (HIV-1 isolate YU2, UniProt P35961); experiment: ELISA; mAb64 against gp120, gp120-Core or their D368R mutant protein, as previously described; conditions: both partners purified
T4 construct: gp120 subunit of Env (cut product of gp160) of HIV-1 isolate YU2; The ELISA methods name gp120 and gp120-Core proteins; also called YU2 gp120

[4] = molecular target: T5, wild type gp120 Env protein of HIV-1 JR-FL (HIV-1 isolate JR-FL, UniProt Q75760, strain); experiment: as above; conditions: both partners purified
T5 construct: gp120 subunit of Env (cut product of gp160) of HIV-1 isolate JR-FL; The ELISA methods name gp120 and gp120-Core proteins; also called JR-FL gp120

Measured: binding result

B1: HmAb64 (antibody, V domains shown)
VH: QVQLVQSGAEVKKPGASVKVSCKASGYTFTSYDITWVRQAPGQGLEWMGWISAYNGDTNYAQRLQGRVTMTTDTSTSTAYMELRSLRSDDTAVYYCARAKHTVLVTAMRWFDPWGQGTLVTVSS
VL: DIQMTQSPSSLSASVGDRVTITCRASQSISNYLNWYQQKPGKAPKLLISATSSLQSGVPSRFSGSGSGTDFTLTISSLQPDDFATYYCQQSYSTPWTFGQGTKLEIK
notes: germline IGHV1-18*01, CDR H3 of 15 aa (Kabat); full-length human IgG heavy chain cloned from clone #64; germline IGKV1-39*01, CDR L3 of 9 aa (Kabat); kappa chain cloned from clone #64; Human IgG, kappa; also called clone #64; human IgG (HmAb64)
binds: all assays above
